In PMC8041799, “Reovirus directly engages integrin to recruit clathrin for entry into host cells” (Nature Communications, 2021):

Key:
α2β1 integrin [1] = target: α2β1 integrin (UniProt P17301); experiment: BLI; as a11, virion-storage buffer with 2 mM Ca2+
α2β1 integrin [2] = target: α2β1 integrin (UniProt P17301); experiment: BLI; as a11, virion-storage buffer (15 mM Mg2+) without further cation
α2β1 integrin [3] = target: α2β1 integrin (UniProt P17301); experiment: single-virus force spectroscopy (FD-curve-based AFM); as a1 (Mn2+), with 1 mM Neu5Ac
α2β1 integrin [4] = target: α2β1 integrin (UniProt P17301); experiment: single-virus force spectroscopy (FD-curve-based AFM); as a1 but with 2 mM Ca2+ instead of Mn2+
α2β1 integrin [5] = target: α2β1 integrin (UniProt P17301); experiment: single-virus force spectroscopy (FD-curve-based AFM); as a1 but 15 mM Mg2+ of the virion-storage buffer as only divalent cation
[6] = target: β1 integrin on living Lec2 cells (Chinese hamster (endogenous in Lec2)); experiment: single-virus force spectroscopy (FD-curve-based AFM); virion on the AFM tip; living Lec2 cells, PeakForce QNM mode; 0.5 mM Mg2+
[7] = target: β1 integrin on living Lec2 cells (Chinese hamster (endogenous in Lec2)); experiment: single-virus force spectroscopy (FD-curve-based AFM); virion on the AFM tip; living Lec2 cells, PeakForce QNM mode, cell culture conditions; 0.5 mM Mn2+
[8] = target: β1 integrin on living Lec2 cells (Chinese hamster (endogenous in Lec2)); experiment: single-virus force spectroscopy (FD-curve-based AFM); virion on the AFM tip; living Lec2 cells, PeakForce QNM mode; with Ca2+ (concentration on cells not stated)
α2β1 integrin [9] = target: α2β1 integrin (UniProt P17301); experiment: BLI; α2β1 integrin immobilised on amine-reactive (AR2G) biosensors; T3SA+ virus ~10^13 particles/mL (16 nM in the fit) in virion-storage buffer with 2 mM Mn2+; room temperature; BLItz
α2β1 integrin [10] = target: α2β1 integrin (UniProt P17301); experiment: single-virus force spectroscopy (FD-curve-based AFM); virus particle on the AFM tip through a PEG27 linker; α2β1 integrin coupled by NHS/EDC to a gold surface; virion-storage buffer (150 mM NaCl, 15 mM MgCl2, 10 mM Tris pH 7.4) with 2 mM Mn2+; ~25 °C; koff from a Bell-Evans fit, kon from BF against contact time, KD = koff/kon
α2β1 integrin [11] = target: T1, α2β1 integrin (UniProt P17301 30-1132; P05556 21-728); experiment: as above; conditions: both partners purified
T1 construct: integrin α2 subunit; integrin β1 subunit; No catalogue number printed; The vendor's recombinant α2β1 is, as far as I recall, the human extracellular domains joined by acidic and basic tails; Coupled through amines (NHS/EDC) to gold surfaces or AR2G biosensors; also called α2β1 integrins; β1 integrins; source: bought: R&D Systems
T1 sequence (P17301 30-1132, chain 1 of 2): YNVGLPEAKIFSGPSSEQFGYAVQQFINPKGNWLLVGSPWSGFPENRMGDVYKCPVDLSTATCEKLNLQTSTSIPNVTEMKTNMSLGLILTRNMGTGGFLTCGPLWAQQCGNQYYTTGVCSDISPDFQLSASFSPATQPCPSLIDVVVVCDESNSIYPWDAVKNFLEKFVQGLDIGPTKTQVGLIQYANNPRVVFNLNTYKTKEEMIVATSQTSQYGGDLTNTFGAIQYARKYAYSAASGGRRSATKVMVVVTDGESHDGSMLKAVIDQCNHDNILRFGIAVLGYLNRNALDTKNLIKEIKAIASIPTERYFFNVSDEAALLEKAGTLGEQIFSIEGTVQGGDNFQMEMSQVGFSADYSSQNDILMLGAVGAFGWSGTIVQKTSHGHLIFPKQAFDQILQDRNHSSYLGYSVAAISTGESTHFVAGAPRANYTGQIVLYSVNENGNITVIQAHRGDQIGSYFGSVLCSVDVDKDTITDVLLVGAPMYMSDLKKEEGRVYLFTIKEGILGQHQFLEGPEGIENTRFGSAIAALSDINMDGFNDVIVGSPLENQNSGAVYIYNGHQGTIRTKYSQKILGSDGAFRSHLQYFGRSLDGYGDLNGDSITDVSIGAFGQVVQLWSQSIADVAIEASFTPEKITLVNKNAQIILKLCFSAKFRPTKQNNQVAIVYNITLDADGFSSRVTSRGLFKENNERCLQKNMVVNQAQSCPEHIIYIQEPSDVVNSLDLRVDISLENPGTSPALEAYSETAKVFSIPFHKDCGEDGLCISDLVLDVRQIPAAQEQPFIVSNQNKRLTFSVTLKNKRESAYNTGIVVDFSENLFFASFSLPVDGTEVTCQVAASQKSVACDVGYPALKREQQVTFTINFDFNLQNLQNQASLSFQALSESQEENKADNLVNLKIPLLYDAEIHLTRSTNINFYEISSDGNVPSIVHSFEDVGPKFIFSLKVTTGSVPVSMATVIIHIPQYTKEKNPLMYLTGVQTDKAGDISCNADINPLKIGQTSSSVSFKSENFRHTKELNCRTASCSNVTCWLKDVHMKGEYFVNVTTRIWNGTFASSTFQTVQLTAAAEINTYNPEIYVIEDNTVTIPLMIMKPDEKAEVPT
T1 sequence (P05556 21-728, chain 2 of 2): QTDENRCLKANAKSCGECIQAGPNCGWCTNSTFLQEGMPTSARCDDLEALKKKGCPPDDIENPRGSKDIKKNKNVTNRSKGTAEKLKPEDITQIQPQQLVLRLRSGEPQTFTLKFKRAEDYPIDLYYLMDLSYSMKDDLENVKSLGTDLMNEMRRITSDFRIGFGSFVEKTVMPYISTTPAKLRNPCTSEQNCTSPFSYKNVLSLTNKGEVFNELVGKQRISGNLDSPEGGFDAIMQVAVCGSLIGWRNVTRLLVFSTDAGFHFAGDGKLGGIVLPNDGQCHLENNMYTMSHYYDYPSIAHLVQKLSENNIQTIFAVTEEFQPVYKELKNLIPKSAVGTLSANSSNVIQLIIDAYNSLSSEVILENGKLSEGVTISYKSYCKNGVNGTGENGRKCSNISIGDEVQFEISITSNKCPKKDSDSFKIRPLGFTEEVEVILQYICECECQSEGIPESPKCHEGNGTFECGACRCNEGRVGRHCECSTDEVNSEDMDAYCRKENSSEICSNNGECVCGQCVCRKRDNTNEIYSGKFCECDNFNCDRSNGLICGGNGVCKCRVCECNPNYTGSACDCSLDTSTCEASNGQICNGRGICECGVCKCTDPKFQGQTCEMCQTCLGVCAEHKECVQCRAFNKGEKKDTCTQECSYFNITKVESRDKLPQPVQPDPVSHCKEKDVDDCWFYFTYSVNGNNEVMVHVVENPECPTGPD

Chain of α2β1 integrin (UniProt P17301) (P17301 30-1132, chain 1 of 2): as the sequence (P17301 30-1132, chain 1 of 2) above
Chain of α2β1 integrin (UniProt P17301) (P05556 21-728, chain 2 of 2, further chain): as the sequence (P05556 21-728, chain 2 of 2) above

reovirus strain T3SA+ virion (from UniProt P03528 1-455; P11077 1-708; P07939 1-365) (complex)
Kd (α2β1 integrin [1]): 85 nM | Kd (α2β1 integrin [2]): 10 nM | BF (binding frequency) with Neu5Ac (α2β1 integrin [3]): 6% | Kd (α2β1 integrin [3]): 116 nM | koff (α2β1 integrin [3]): 0.57 s⁻¹ | kon (α2β1 integrin [3]): 4.92e+06 M⁻¹ s⁻¹ | BF (binding frequency) (α2β1 integrin [4]): 1% | BF (binding frequency) (α2β1 integrin [5]): 8% | Kd (α2β1 integrin [5]): 548 nM | koff (α2β1 integrin [5]): 2.1 s⁻¹ | kon (α2β1 integrin [5]): 3.83e+06 M⁻¹ s⁻¹ | BF (binding frequency) [6]: 3% | BF (binding frequency) [7]: 6% | BF (binding frequency) [8]: 1% | Kd (α2β1 integrin [9]): 2 nM | BF (binding frequency) (α2β1 integrin [10]): 19% | Kd (α2β1 integrin [10]): 68 nM | koff (α2β1 integrin [10]): 0.4 s⁻¹ | kon (α2β1 integrin [10]): 5.83e+06 M⁻¹ s⁻¹

reovirus strain T3SA- virion (from UniProt P03528 1-455; P11077 1-708; P07939 1-365) (complex)
BF (binding frequency) (α2β1 integrin [10]): 7% | Kd (α2β1 integrin [10]): 103 nM | koff (α2β1 integrin [10]): 0.58 s⁻¹ | kon (α2β1 integrin [10]): 5.62e+06 M⁻¹ s⁻¹

T3SA+ infectious subvirion particle (ISVP) (from UniProt P03528 1-455; P11077 1-708) (complex)
BF (binding frequency) (α2β1 integrin [10]): 4% | Kd (α2β1 integrin [10]): 105 nM | koff (α2β1 integrin [10]): 0.59 s⁻¹ | kon (α2β1 integrin [10]): 5.62e+06 M⁻¹ s⁻¹

B1: T3SA+ core (complex)
chain: MANVWGVRLADSLSSPTIETRTRHYTLRDFCSDLDAVAGKEPWRPLRNQRTNDIVAVQLFRPLQGLVLDTQFYGFPGIFSEWEQFIKEKLRVLKYEVLRIYPISNYNHERVNVFVANALVGAFLSNQAFYDLLPLLVINDTMINDLLGTGAALSQFFQSHGEVLEVAAGRKYLQMKNYSNDDDDPPLFAKDLSDYAKAFYSDTFETLDRFFWTHDSSAGVLVHYDKPTNGNHYILGTLTQMVSAPPHIINATDALLLESCLEQFAANVRARPAQPVARLDQCYHLRWGAQYVGEDSLTYRLGVLSLLATNGYQLARPIPKQLTNRWLSSFVSQVMSDGVNETPLWPQERYVQIAYDSPSVVDGATHYGYVRRNQLRLGMRVSALQSLSDTPAPIQWLPQYTIEQAAVDEGDLMVSRLTQLPLRPDYGSIWVGDALSYYVDYNRSHRVVLSSELPQLPDTYFDGDEQYGRSLFSLARKIGDRSLIKDTAVLKHAYQAIDPNTGKEYLRAGQSVAYFGASAGHSGADQPLVIEPWTQGKISGVPPPSSVRQFGYDVAKGAIVDLARPFPSGDYQFVYSDVDQVVDGHDDLSISSGLVESLLDSCMHATSPGGSFVMKINFPTRTVWHYIEQKILPNITSYMLIKPFVTNNVELFFVAFGVHQQSALTWTSGVYFFLVDHFYRYETLSTISRQLPSFGYVDDGSSVTGIEMISLENPGFSNMTQAARVGISGLCANVGNARKLISIHESHGARVLTITSRRSPASARRKARLRYLPLVDPRSLEVQARTILPSNPVLFDNVNGASPHVCLTMMYNFEVSSAVYDGDVVLDLGTGPEAKILELIPPTSPVTCVDIRPTAQPSGCWNVRTTFLELDYLSDGWITGIRGDIVTCMLSLGAAAAGKSMTFDAAFQQLVKVLTKSTANVLLIQVNCPTDVIRTIKGYLEIDQTNKRYRFPKFGRDEPYSDMDSLERICRAAWPNCSITWVPLSYDLRWTKLALLESTTLSSASVRIAELMYKYMPVMRIDIHGLPMEKQGNFIVGQNCSLTIPGFNAQDVFNCYFNSALAFSTEDVNSAMIPQVTAQFDANKGEWSLDMVFSDAGIYTMQALVGSNANPVSLGSFVVDSPDVDITDAWPAQLDFTIAGTDVDITVNPYYRLMAFVRIDGQWQIANPDKFQFFSSSTGTLVMNVKLDIADRYLLYYIRDVQSRDVGFYIQHPLQLLNTITLPTNEDLFLSAPDMREWAVKESGNTICILNSQGFVPPQDWDVLTDTISWSPSLPTYVVPPGDYTLTPL
Kd (α2β1 integrin [11]): 741 ± 317 nM | koff (α2β1 integrin [11]): 1.52 ± 0.4 s⁻¹ | kon (α2β1 integrin [11]): 2.05e+06 ± 300000 M⁻¹ s⁻¹
